Here are results for six compounds from PMC5374433, “Theranostic Value of Multimers: Lessons Learned from Trimerization of Neurotensin Receptor Ligands and Other Targeting Vectors” (Pharmaceuticals, 2017).

One series has as its target human NTS1 (Homo sapiens, UniProt P30989). Description: Competitive radioligand binding assay, NTS1. The note with it: Ki (NTS1, nM), membranes of CHO cells stably expressing human NTS1; mean ± SEM, 4-8 experiments. The protocol: (§1) Receptor binding data were performed as described previously. […] NTS2 binding was conducted using homogenates of membranes from HEK 293 cells transiently transfected with pcDNA3.1 carrying the human NTS2 gene (Missouri S&T cDNA Resource Center (UMR), Rolla, MO, USA) using the Mirus TransIT-293 transfection reagent (MoBiTec, Göttingen, Germany) according to the manufacturer’s protocol.
(§2) Data analysis of the competition binding curves from the radioligand displacement experiments was done by non-linear regression analysis when applying the algorithms of the PRISM 6.0 software package (GraphPad Software, San Diego, CA, USA). EC50 values were derived from each dose-response curve and were subsequently transformed into the corresponding Ki values by applying the equation of Cheng and Prusoff. Mean Ki values and the corresponding S.E.M. values (standard error of the mean) were determined by analyzing four to eight individual experiments.

A short description of series [1]: Octanol/PBS distribution coefficient log D pH 7.4. The series is classed as physicochemical.
Series [2] in a line: Biodistribution, LNCaP xenograft. The note with it: in vivo, 60 min p.i., estimated from PET ROI analysis, ± SD.
The next series deals with PSMA. More on the design: method as in PMID 25999035. Particulars: Ga complexes; read-out: Affinity IC50 (nM), PSMA; cited from earlier work.
Series [3] relates to αvβ6 integrin. Nature of the series: Affinity to αvβ6 integrin. The note with it: Ga complexes. The series is classed as binding.
For series [4] the following is noted: in vivo, H2009 xenograft, 90 min p.i., estimated from PET ROI analysis, ± SD.
In series [5] the test system is αvβ6 integrin. The arrangement: method as in PMID 27980050. Particulars: Ga complexes; read-out: Affinity IC50 (nM), αvβ6 integrin; cited from earlier work.
The target of the next series is T1, human NTS2 (Homo sapiens, UniProt O95665).
T1 construct: host or cells: HEK 293 cells (transient transfection, pcDNA3.1)
T1 sequence (O95665 whole entry): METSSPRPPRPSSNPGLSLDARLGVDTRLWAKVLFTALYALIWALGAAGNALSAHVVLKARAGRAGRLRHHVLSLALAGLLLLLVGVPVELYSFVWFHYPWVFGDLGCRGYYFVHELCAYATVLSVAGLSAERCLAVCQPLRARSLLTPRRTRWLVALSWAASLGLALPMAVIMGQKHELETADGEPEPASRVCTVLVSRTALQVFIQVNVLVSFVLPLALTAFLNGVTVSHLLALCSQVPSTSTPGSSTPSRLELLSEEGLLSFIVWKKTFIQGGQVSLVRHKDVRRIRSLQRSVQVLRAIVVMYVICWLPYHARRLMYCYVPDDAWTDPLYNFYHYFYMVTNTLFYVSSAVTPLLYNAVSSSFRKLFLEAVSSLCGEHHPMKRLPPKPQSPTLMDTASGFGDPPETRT
Nature of the series: Competitive radioligand binding assay, NTS2. The protocol: as §1, §2

Series [6] can be described thus: Biodistribution in HT29 tumor-bearing nude mice. Particulars: mouse, in vivo, 60 min p.i. It is filed as in vivo, mouse. The protocol: For in vivo evaluation of [^68Ga]Ga-TRAP(NT4)3 the NTS1-positive human colorectal adenocarcinoma cells HT29 were injected in nude mice to generate a subcutaneous tumor. The radioligand was injected in the tail vein of the mice and the biodistribution was determined 60 and 90 min after tracer injection. […] The clearance rate of [^68Ga]Ga-TRAP(NT4)3 in these excretion organs was apparently low. […] (1.44 %ID/g). Blocking experiments were performed to confirm the specificity of the tumor uptake of [^68Ga]Ga-TRAP(NT4)3 in vivo. Therefore, TRAP(NT4)3 (20 nmol) or NT4 (100 nmol) were co-injected together with the radiotracer to define the nonspecific uptake of the tracer in the tumor region. […] Apart from the intestine, the uptake in all other organs was not affected by the blocking substances (Table 2), confirming the receptor-mediated uptake of [^68Ga]Ga-TRAP(NT4)3, as it was reported that NTS receptors are expressed in the small intestine of mice.
All animal experiments were performed in compliance with the protocols approved by the local Animal Protection Authorities (Regierung Mittelfranken, Germany, no. 54-2532.1-15/08). Female athymic NMRI nude mice (nu/nu) were obtained from Harlan Winkelmann GmbH (Borchen, Germany) at four weeks of age and were kept under standard conditions (12 h light/dark) with food and water available ad libitum for at least five weeks. HT29 tumors were generated as described before.
HT29 xenografted nude mice were injected with [^68Ga]Ga-TRAP(NT4)3 into a tail vein (2.5–7.5 MBq/mouse). The animals were killed by cervical dislocation 60 or 90 min p.i. The tumors, other tissues (lung, liver, kidneys, heart, spleen, brain, muscle, femur, and intestine) and blood were removed and weighed. Radioactivity of the samples was measured using a γ-counter and expressed as the percentage of injected dose per gram of tissue (%ID/g), from which tumor-to-blood ratios were calculated. Blocking experiments were carried out by co-injecting randomly chosen mice with TRAP(NT4)3 (20 nmol/mouse) or NT4 (100 nmol/mouse) together with the radiotracer. These mice were killed by cervical dislocation at 60 min p.i., and organs and tissue were removed, weighed, and counted as described above.

For series [7] the following is noted: in vivo; cited from earlier work.
For series [8] the following is noted: cited from earlier work.
The subject of another series is H2009 xenograft. The note with it: in vivo, 1.5 h; cited from earlier work.

Where two headings read alike, the source gives them in different places.

Sequence of human NTS1 (P30989 whole entry): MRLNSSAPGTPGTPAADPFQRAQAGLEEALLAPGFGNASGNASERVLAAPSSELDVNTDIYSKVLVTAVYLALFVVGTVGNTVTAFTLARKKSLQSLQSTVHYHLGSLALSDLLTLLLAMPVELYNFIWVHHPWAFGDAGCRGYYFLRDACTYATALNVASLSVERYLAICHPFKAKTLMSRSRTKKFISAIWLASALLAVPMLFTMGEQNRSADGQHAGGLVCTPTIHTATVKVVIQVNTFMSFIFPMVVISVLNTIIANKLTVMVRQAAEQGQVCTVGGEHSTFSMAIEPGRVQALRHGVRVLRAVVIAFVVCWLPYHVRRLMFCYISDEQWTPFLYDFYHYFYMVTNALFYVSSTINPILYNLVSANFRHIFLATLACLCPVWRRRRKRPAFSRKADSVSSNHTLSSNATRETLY

In the case of `CC(C)C[C@H](NC(=O)[C@@H](NC(=O)[C@H](Cc1ccc(O)cc1)NC(=O)[C@@H]1CCCN1C(=O)[C@H](CCCCN)NC(=O)CN(CCCCN)C(=O)[C@@H](N)CCCCn1cc(CNC(=O)CCP(=O)(O)CN2CCN(CP(=O)(O)CCC(=O)NCc3cn(CCCC[C@H](N)C(=O)N(CCCCN)CC(=O)N[C@@H](CCCCN)C(=O)N4CCC[C@H]4C(=O)N[C@@H](Cc4ccc(O)cc4)C(=O)N[C@H](C(=O)N[C@@H](CC(C)C)C(=O)O)C(C)(C)C)nn3)CCN(CP(=O)(O)CCC(=O)NCc3cn(CCCC[C@H](N)C(=O)N(CCCCN)CC(=O)N[C@@H](CCCCN)C(=O)N4CCC[C@H]4C(=O)N[C@@H](Cc4ccc(O)cc4)C(=O)N[C@H](C(=O)N[C@@H](CC(C)C)C(=O)O)C(C)(C)C)nn3)CC2)nn1)C(C)(C)C)C(=O)O` (single isomer, unassigned) [Ga-TRAP(NT4)3], the Ki (as a rule, the dissociation constant of the complex between target and ligand, obtained from inhibition or displacement) at human NTS1 was found to be 0.12 ± 0.03 nM.

`O=C(O)CC[C@H](NC(=O)N[C@@H](CCCCNC(=O)CCCCCCC(=O)NCCCC[C@H](NC(=O)[C@H](Cc1ccccc1)NC(=O)[C@H](Cc1ccccc1)NC(=O)CCC(C(=O)O)N1CCN(CC(=O)O)CCN(CC(=O)O)CCN(CC(=O)O)CC1)C(=O)O)C(=O)O)C(=O)O` (stereo partly shown) [DOTAGA-DUPA] showed a logD in series [1] of -3.6 ± 0.2. For the same compound, the tissue uptake at 1 h in series [2] (read-out: Blood %ID/g) is 2.5 ± 0.14 %ID/g; in [2] (read-out: Kidney %ID/g), 29 ± 7 %ID/g; in [2] (read-out: Liver %ID/g) it was 2 ± 0.17 %ID/g; in [2] (read-out: Muscle %ID/g), 1.2 ± 0.13 %ID/g; in series [2] (read-out: Tumor %ID/g), 2 ± 0.2 %ID/g. Besides, in the series with PSMA, the IC50 (in general, the concentration at which inhibition is half-maximal) is 36 nM.

As for `CC(C)C[C@@H]1NC(=O)[C@H](CC(=O)O)NC(=O)CNC(=O)[C@H](CCCNC(=N)N)NC(=O)[C@H](Cc2ccccc2)NC(=O)[C@H](CCCCNC(=O)CCc2cn(CCCNC(=O)CCP(=O)(O)CN3CCN(CP(=O)(O)CCC(=O)NCCCn4cc(CCC(=O)NCCCC[C@H]5C(=O)N[C@@H](Cc6ccccc6)C(=O)N[C@@H](CCCNC(=N)N)C(=O)NCC(=O)N[C@@H](CC(=O)O)C(=O)N[C@@H](CC(C)C)C(=O)N[C@@H](C)C(=O)N[C@@H](Cc6ccccc6)C(=O)N6CCC[C@@H]6C(=O)N5C)nn4)CCN(CP(=O)(O)CCC(=O)NCCCn4cc(CCC(=O)NCCCC[C@H]5C(=O)N[C@@H](Cc6ccccc6)C(=O)N[C@@H](CCCNC(=N)N)C(=O)NCC(=O)N[C@@H](CC(=O)O)C(=O)N[C@@H](CC(C)C)C(=O)N[C@@H](C)C(=O)N[C@@H](Cc6ccccc6)C(=O)N6CCC[C@@H]6C(=O)N5C)nn4)CC3)nn2)N(C)C(=O)[C@H]2CCCN2C(=O)[C@H](Cc2ccccc2)NC(=O)[C@H](C)NC1=O` [TRAP(AvB6)3], the “Affinity factor monomer/trimer, αvβ6 integrin” value in the series with αvβ6 integrin [3] came out at 11. Further, the tissue uptake at 1.5 h is 1.9 ± 0.15 %ID/g in [4] (Blood %ID/g); 17.7 ± 6.5 %ID/g in [4] (Kidney %ID/g); 3.7 ± 0.14 %ID/g in [4] (Liver %ID/g); 0.71 ± 0.1 %ID/g in [4] (Muscle %ID/g); 0.92 ± 0.08 %ID/g in [4] (Tumor %ID/g). Further, in the series on αvβ6 integrin [5], the IC50 was 0.023 nM.

Turning to `CC(C)C[C@H](NC(=O)[C@@H](NC(=O)[C@H](Cc1ccc(O)cc1)NC(=O)[C@@H]1CCCN1C(=O)[C@H](CCCCN)NC(=O)CN(CCCCN)C(=O)[C@@H](N)CCCCn1cc(CNC(=O)CCP(=O)(O)CN2CCN(CP(=O)(O)CCC(=O)NCc3cn(CCCC[C@H](N)C(=O)N(CCCCN)CC(=O)N[C@@H](CCCCN)C(=O)N4CCC[C@H]4C(=O)N[C@@H](Cc4ccc(O)cc4)C(=O)N[C@H](C(=O)N[C@@H](CC(C)C)C(=O)O)C(C)(C)C)nn3)CCN(CP(=O)(O)CCC(=O)NCc3cn(CCCC[C@H](N)C(=O)N(CCCCN)CC(=O)N[C@@H](CCCCN)C(=O)N4CCC[C@H]4C(=O)N[C@@H](Cc4ccc(O)cc4)C(=O)N[C@H](C(=O)N[C@@H](CC(C)C)C(=O)O)C(C)(C)C)nn3)CC2)nn1)C(C)(C)C)C(=O)O` [TRAP(NT4)3], the results for the Ki at human NTS1 and at human NTS2 were 0.47 ± 0.05 nM and 0.26 ± 0.05 nM, respectively. Further, the tissue uptake at 1 h in series [6] (read-out: HT29 tumor uptake) is 1.74 %ID/g; in series [6] (read-out: blood uptake), 0.13 %ID/g; in series [6] (read-out: kidney uptake), 95 %ID/g; in [6] (read-out: liver uptake), 11 %ID/g; in series [6] (read-out: muscle uptake), 0.09 %ID/g. Besides, the logD in series [1] (octanol/PBS, Ga complex, ± standard deviation, first reported herein, read-out: log D pH 7.4) is -3.7 ± 0.1.

For “Arg^8-Arg^9-Pro^10-Tyr^11-Ile^12-Leu^13-OH [NT(8–13)]”, the biological half-life result in series [7] is on record as “only a few minutes, or even less”.

As for “TRAP(AvB6)1: Ga-monomer of c(FRGDLAF-p[NMe]K), αvβ6 integrin (cyclo(FRGDLAF); not fully specified (C-terminus); also: TRAP chelator Ga complex, attachment site not given here)”, the IC50 in the series with αvβ6 integrin [5] is 0.26 nM. Also, the “log D pH 7.4” value in series [8] is listed as −3.7. Further, in the series with H2009 xenograft, the “Blood %ID/g” value is 0.17 %ID/g, the “Kidney %ID/g” value is reported as 4.3 %ID/g, the “Liver %ID/g” value was 0.36 %ID/g and the “Muscle %ID/g” value is listed as 0.06 %ID/g. For the same compound, the “Tumor %ID/g” value in the series with H2009 xenograft is 0.65 %ID/g.
